For the experiment, the target named is T1, IGF-1R (Insulin-like growth factor 1 receptor) on the surface of MCF-7 cells (UniProt P08069 31-1367, limits assumed).
T1 construct: whole, on cells; Endogenous receptor of MCF-7 cells; also called MCF-7 세포 표면 IGF-1R 항원; IGF-1 수용체
The experiment in a line: flow cytometry (FACS) on MCF-7 cells, 1 ug/ml antibody, anti-human IgG-FITC.

T1 sequence (P08069 31-1367 limits assumed): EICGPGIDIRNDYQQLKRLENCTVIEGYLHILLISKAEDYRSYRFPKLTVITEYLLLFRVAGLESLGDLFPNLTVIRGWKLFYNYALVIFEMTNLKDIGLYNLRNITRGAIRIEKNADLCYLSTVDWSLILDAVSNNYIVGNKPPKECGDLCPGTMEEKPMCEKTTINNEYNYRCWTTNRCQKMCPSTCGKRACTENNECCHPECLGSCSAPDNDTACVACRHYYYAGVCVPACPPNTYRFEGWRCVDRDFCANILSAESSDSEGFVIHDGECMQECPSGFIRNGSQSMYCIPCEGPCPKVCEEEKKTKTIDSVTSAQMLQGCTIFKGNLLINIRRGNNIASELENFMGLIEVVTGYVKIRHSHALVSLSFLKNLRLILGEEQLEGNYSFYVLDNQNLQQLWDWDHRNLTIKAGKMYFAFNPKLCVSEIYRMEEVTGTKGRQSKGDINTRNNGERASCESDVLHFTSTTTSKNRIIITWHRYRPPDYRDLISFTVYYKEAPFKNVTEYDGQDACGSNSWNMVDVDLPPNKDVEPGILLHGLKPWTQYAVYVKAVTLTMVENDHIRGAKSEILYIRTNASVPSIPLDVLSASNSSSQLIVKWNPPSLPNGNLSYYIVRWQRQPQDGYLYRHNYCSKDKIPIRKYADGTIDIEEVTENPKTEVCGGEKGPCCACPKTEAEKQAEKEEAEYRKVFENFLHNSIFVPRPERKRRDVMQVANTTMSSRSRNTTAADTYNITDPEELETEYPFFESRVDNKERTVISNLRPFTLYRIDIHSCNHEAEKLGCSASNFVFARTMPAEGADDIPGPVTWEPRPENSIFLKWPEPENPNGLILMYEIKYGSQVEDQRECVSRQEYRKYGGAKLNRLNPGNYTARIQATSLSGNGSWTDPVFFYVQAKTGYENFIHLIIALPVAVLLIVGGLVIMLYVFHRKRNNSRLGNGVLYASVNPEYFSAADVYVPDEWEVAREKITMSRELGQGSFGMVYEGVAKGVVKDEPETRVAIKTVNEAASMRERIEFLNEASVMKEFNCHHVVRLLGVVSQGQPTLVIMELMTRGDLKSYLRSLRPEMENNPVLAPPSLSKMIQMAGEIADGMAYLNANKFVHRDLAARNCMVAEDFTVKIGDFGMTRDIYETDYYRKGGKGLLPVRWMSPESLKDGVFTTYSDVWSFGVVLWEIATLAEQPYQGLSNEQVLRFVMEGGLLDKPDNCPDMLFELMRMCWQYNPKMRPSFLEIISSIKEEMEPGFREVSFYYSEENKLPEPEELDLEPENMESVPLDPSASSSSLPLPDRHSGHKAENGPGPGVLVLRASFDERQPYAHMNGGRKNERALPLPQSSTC

B1: 항IGF-1R 항체(A12) (antibody, human IgG1, lambda, V domains shown)
VH: EVQLVQSGAEVKKPGSSVKVSCKASGGTFSSYAISWVRQAPGQGLEWMGGIIPIFGTANYAQKFQGRVTITADKSTSTAYMELSSLRSEDTAVYYCARAPLRFLEWSTQDHYYYYYMDVWGKGTTVTVSS
VL: SSELTQDPAVSVALGQTVRITCQGDSLRSYYATWYQQKPGQAPILVIYGENKRPSGIPDRFSGSSSGNTASLTITGAQAEDEADYYCKSRDGSGQHLVFGGGTKLTVLG
notes: IgG form; also called 항암항체(A12); Imclone사(A12) 항IGF-1R 항체
Turning to B1, the binding result is listed as “binds”.

The values above are taken from patent KR20130033273A (dated 2013).
